Measured values from publication doi:10.1101/749176, “ZapA tetramerization is required for midcell localization and ZapB interaction in Escherichia coli” (bioRxiv, 2019).

T1: mKO-FtsZ (Escherichia coli, UniProt P0A9A6 1-383)
T1 construct: FtsZ, Escherichia coli; also called Filamenting temperature sensitive Z; source: E. coli TB28 ΔzapA or WT strain, expressed from plasmid, in living cells
T1 sequence (looked up): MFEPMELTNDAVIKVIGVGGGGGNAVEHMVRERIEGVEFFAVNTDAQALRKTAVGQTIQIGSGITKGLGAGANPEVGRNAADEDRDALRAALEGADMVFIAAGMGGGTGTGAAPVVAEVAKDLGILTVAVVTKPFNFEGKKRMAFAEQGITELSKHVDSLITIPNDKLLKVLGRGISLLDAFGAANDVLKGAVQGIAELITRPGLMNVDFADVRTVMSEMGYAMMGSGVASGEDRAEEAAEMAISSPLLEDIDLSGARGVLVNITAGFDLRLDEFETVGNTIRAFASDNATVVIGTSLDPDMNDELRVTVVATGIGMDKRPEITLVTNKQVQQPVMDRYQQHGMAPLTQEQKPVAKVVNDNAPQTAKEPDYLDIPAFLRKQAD

T2: mKO-PBP1a (Escherichia coli, UniProt P02918 1-850)
T2 construct: PBP1a, inner membrane (IM) protein, Escherichia coli; Negative control partner of the FRET assay; source: E. coli TB28 ΔzapA, expressed from plasmid, in living cells
T2 sequence (looked up): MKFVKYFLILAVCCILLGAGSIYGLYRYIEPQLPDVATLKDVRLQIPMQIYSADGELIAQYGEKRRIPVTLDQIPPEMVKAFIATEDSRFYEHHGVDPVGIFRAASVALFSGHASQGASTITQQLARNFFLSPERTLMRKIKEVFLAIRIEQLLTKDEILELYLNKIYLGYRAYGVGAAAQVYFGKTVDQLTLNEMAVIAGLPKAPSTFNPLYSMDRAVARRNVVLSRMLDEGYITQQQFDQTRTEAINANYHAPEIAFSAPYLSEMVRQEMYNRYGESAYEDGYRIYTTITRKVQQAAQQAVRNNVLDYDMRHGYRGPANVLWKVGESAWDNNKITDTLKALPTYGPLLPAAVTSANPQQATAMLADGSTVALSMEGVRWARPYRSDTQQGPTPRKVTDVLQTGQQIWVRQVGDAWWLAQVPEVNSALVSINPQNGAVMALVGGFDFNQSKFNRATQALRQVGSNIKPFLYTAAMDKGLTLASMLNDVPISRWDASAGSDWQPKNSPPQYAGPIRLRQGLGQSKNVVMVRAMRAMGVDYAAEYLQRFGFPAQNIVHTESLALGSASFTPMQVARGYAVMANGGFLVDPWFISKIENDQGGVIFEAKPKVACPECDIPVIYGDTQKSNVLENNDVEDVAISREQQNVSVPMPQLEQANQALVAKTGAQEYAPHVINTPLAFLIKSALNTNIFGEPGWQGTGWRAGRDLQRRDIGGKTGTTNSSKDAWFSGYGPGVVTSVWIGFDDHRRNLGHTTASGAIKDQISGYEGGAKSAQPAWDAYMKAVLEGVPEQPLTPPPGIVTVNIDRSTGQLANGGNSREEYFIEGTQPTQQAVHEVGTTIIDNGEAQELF


Tests used:
[1] = biological target: T1, mKO-FtsZ; test: FRET or BRET; in vivo FRET in E. coli TB28 ΔzapA cells, mKO donor and mCh acceptor fusions expressed from plasmids; energy transfer efficiency (EfA) from unmixed emission spectra; details: partners not purified
[2] = biological target: T2, mKO-PBP1a; test: as above; details: partners not purified

energy transfer efficiency (EfA) [1]	energy transfer efficiency (EfA) [2]	Binder
4%	< 1.7%	mCh-ZapA (wild type ZapA fused to mCh) (natural protein, Escherichia coli, UniProt P0ADS2 1-109, looked up, ZapA (Z associated protein A), Escherichia coli; zapA in plasmid pSAV077; also called mCh-ZapA^WT; ZapA^WT; source: E. coli TB28 ΔzapA or WT strain, expressed from plasmid, in living cells) MSAQPVDIQIFGRSLRVNCPPDQRDALNQAADDLNQRLQDLKERTRVTNTEQLVFIAALNISYELAQEKAKTRDYAASMEQRIRMLQQTIEQALLEQGRITEKTNQNFE
–	< 1.7%	mCh-ZapA^I83E (dimeric ZapA mutant fused to mCh) (natural protein, Escherichia coli, UniProt P0ADS2 1-109, looked up, ZapA (Z associated protein A), Escherichia coli, with I83E; zapA of pSAV077 exchanged for zapA^I83E from pRP071; source: E. coli TB28 ΔzapA or WT strain, expressed from plasmid pNM137, in living cells) MSAQPVDIQIFGRSLRVNCPPDQRDALNQAADDLNQRLQDLKERTRVTNTEQLVFIAALNISYELAQEKAKTRDYAASMEQRERMLQQTIEQALLEQGRITEKTNQNFE
–	< 1.7%	mCh-PBP1b (natural protein, Escherichia coli, UniProt P02919 1-844, looked up, PBP1b, Escherichia coli; Negative control of the FRET assay; source: E. coli TB28 ΔzapA, expressed from plasmid, in living cells) MAGNDREPIGRKGKPTRPVKQKVSRRRYEDDDDYDDYDDYEDEEPMPRKGKGKGKGRKPRGKRGWLWLLLKLAIVFAVLIAIYGVYLDQKIRSRIDGKVWQLPAAVYGRMVNLEPDMTISKNEMVKLLEATQYRQVSKMTRPGEFTVQANSIEMIRRPFDFPDSKEGQVRARLTFDGDHLATIVNMENNRQFGFFRLDPRLITMISSPNGEQRLFVPRSGFPDLLVDTLLATEDRHFYEHDGISLYSIGRAVLANLTAGRTVQGASTLTQQLVKNLFLSSERSYWRKANEAYMALIMDARYSKDRILELYMNEVYLGQSGDNEIRGFPLASLYYFGRPVEELSLDQQALLVGMVKGASIYNPWRNPKLALERRNLVLRLLQQQQIIDQELYDMLSARPLGVQPRGGVISPQPAFMQLVRQELQAKLGDKVKDLSGVKIFTTFDSVAQDAAEKAAVEGIPALKKQRKLSDLETAIVVVDRFSGEVRAMVGGSEPQFAGYNRAMQARRSIGSLAKPATYLTALSQPKIYRLNTWIADAPIALRQPNGQVWSPQNDDRRYSESGRVMLVDALTRSMNVPTVNLGMALGLPAVTETWIKLGVPKDQLHPVPAMLLGALNLTPIEVAQAFQTIASGGNRAPLSALRSVIAEDGKVLYQSFPQAERAVPAQAAYLTLWTMQQVVQRGTGRQLGAKYPNLHLAGKTGTTNNNVDTWFAGIDGSTVTITWVGRDNNQPTKLYGASGAMSIYQRYLANQTPTPLNLVPPEDIADMGVDYDGNFVCSGGMRILPVWTSDPQSLCQQSEMQQQPSGNPFDQSSQPQQQPQQQPAQQEQKDSDGVAGWIKDMFGSN
